Test results as given in patent US7851436 (WASHINGTON UNIVERSITY IN ST LOUIS, dated 2010).

Assays:
β1 integrin = target: T1, β1 integrin (human, UniProt P05556 21-798); test: GST pull-down from surface-biotinylated Ch-1 lysate, Western blot (FIG. 3K)
T1 construct: whole, on cells; Probed by Western blot in the material pulled out by PIIBNP
Experimental: (§1) Cell Surface labeling and GST Pull-down Assay. Ch-1 cells were incubated with EZ-link Sulfo-NHS-Biotin reagent for 30 mins. according to the product instruction (Sigma). After 3 washes with 0.1 M glycine in PBS, the cells were lysed with a lysis buffer described above. […] The membrane was washed and incubated with antibodies and then incubated with a secondary antibody coupled to horseradish peroxidase. The antibody complex was visualized by enhanced chemiluminescence.

α4 integrin = target: T2, α4 integrin (human, UniProt P13612 34-1032); test: GST pull-down from surface-biotinylated Ch-1 lysate, Western blot (data not shown)
T2 construct: whole, on cells; The antibody lists in the methods name α2, α3 and α5 but not α4
T2 sequence (looked up): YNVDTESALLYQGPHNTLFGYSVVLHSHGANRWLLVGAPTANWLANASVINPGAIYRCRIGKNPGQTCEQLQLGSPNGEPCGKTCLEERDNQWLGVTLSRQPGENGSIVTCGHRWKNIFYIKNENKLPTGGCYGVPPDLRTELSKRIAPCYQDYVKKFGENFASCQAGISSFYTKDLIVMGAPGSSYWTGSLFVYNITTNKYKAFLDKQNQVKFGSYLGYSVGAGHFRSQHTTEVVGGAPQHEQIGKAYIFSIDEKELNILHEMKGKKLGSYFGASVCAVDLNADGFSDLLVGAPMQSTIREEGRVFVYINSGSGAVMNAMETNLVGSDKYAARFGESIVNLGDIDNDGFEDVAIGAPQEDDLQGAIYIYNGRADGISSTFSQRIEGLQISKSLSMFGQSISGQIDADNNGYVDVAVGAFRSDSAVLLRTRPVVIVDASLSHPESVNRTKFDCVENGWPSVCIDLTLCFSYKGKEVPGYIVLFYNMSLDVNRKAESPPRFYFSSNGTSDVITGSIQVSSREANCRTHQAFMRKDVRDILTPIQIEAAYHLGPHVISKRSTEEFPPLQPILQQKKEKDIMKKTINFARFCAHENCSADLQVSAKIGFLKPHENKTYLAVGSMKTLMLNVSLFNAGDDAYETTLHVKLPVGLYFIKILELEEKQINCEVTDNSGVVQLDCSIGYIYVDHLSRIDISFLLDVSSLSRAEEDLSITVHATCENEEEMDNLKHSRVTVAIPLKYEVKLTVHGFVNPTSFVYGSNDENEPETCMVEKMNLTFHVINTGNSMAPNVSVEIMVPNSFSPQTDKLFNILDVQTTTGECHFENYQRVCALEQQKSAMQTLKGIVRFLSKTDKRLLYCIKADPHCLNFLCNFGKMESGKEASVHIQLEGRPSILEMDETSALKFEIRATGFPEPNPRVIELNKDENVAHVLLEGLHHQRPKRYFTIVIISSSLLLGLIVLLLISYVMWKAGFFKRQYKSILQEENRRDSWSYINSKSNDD

α5 integrin = target: T3, α5 integrin (human, UniProt P08648 42-1049); test: as above
T3 construct: whole, on cells
T3 sequence (P08648 42-1049): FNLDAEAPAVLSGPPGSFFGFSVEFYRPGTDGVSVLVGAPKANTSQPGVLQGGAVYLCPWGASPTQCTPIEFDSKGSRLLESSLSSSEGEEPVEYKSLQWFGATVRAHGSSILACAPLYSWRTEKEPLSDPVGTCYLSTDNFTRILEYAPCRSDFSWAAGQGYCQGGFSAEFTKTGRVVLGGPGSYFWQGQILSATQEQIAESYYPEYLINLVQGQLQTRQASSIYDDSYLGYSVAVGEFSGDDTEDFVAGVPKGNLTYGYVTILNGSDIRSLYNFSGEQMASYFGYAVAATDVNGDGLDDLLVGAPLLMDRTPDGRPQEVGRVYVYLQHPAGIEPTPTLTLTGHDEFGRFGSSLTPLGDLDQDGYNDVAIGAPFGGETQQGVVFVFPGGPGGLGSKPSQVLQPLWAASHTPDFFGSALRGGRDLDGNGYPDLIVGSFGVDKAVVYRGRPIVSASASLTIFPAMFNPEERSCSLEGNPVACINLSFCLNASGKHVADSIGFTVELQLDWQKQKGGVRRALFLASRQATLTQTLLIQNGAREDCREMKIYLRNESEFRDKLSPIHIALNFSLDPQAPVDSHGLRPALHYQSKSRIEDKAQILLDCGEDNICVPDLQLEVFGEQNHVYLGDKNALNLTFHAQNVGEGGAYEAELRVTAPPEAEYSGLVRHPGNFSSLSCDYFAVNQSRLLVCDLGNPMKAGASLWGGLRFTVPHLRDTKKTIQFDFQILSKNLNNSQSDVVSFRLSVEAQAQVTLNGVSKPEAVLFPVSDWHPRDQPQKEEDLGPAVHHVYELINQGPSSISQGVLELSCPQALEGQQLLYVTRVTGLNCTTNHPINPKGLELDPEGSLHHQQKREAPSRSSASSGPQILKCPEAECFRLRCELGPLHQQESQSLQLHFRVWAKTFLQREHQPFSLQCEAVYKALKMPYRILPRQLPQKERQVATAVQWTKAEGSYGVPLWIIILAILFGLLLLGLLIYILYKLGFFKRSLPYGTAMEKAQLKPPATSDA
Experimental: as §1

T1 sequence (P05556 21-798): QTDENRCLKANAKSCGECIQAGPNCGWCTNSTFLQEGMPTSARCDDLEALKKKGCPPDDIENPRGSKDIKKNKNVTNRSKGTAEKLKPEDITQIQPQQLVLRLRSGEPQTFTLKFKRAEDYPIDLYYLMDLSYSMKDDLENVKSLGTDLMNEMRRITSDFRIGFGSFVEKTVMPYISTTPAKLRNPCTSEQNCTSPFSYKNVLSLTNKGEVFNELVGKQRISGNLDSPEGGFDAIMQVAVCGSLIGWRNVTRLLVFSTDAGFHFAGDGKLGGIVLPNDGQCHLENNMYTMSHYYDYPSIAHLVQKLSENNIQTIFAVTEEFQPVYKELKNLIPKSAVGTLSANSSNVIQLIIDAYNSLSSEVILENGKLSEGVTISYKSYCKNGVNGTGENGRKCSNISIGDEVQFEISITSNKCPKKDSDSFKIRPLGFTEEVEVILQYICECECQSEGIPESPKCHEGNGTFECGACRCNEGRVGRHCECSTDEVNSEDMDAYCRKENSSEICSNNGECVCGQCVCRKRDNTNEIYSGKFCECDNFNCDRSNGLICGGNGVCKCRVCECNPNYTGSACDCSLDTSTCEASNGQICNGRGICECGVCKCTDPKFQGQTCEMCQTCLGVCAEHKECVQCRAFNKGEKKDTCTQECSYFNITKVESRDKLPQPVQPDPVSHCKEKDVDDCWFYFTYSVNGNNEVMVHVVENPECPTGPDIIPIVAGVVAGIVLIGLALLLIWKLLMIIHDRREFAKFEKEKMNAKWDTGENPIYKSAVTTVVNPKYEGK

- binding result (β1 integrin): no binding
- binding result (α4 integrin): no binding
- binding result (α5 integrin): no binding
B1: GST-PIIBNP (GST fusion of human Type IIB collagen amino propeptide, exons 3-8) (ligand)
chain: not shown
notes: domain: PIIBNP (exons 3-8); Expressed in E. coli BL21 (DE3) as a GST fusion; also called Type IIB propeptide; PPIIBNP; not shown: glutathione S-transferase (GST) tag encoded by the pGEX-4T-2 vector, thrombin-cleavable
